Experimental data taken from PMC4011913.

Experiments:
Assay in all cases: SPR
[1] = biological target: humanized IgG1 anti-herpes simplex virus glycoprotein D antibody, wild type (human)
[2] = biological target: humanized anti-gD IgG1 variant H310Q (human)
[3] = biological target: humanized anti-gD IgG1 variant T307Q/N434A (human)

Soluble murine FcRn (neonatal Fc receptor) (from UniProt Q61559 22-297)
Kd [1]: 601 nM
koff [1]: 0.0037 s⁻¹
kon [1]: 6160 M⁻¹ s⁻¹
Kd [2]: 93000 nM
koff [2]: 0.115 s⁻¹
kon [2]: 1230 M⁻¹ s⁻¹
Kd [3]: 108 nM
koff [3]: 0.0021 s⁻¹
kon [3]: 19100 M⁻¹ s⁻¹
